For experiment [1], the target named is CD3 on Jurkat cells (Homo sapiens (Human)) (UniProt P07766). The experiment is described as follows: flow cytometry on Jurkat cells, 5 nM, anti-human IgG-FITC. Background: A flow cytometer gives signals particle by particle.
The target in another experiment is CD20 on Raji cells (UniProt P11836). The experiment in a line: flow cytometry on Raji cells, as in Example 8.
The target in experiment [2] is CD3 on Jurkat cells (Homo sapiens (Human)) (UniProt P07766). The experiment is described as follows: flow cytometry on Jurkat cells, as in Example 8.
Experiment [3] has the same target. The experiment in a line: flow cytometry on Jurkat cells, as in Example 8. This is another data set of the same source.
In the next experiment the target is HER2 on SK-BR-3 cells (UniProt P04626). The experiment is described as follows: flow cytometry on SK-BR-3 cells, 0.5 nM, anti-human IgG-FITC.
For experiment [4], the target named is CD3 on Jurkat cells (Homo sapiens (Human)) (UniProt P07766). The experiment in a line: flow cytometry on Jurkat cells, as in Example 8. This is another data set of the same source.

Consider one substance from patent publication US20190284299A1.

Sequence of CD3 on Jurkat cells (Homo sapiens (Human)) (P07766 23-207 limits assumed, form in doubt, chain 1 of 3): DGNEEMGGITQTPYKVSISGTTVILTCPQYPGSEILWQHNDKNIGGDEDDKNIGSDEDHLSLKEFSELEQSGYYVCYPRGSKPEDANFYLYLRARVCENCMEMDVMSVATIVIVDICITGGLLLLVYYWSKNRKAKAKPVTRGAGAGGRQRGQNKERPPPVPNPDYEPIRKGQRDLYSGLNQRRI
Sequence of CD3 on Jurkat cells (Homo sapiens (Human)) (delta, as listed by the source limits assumed, form in doubt, chain 2 of 3): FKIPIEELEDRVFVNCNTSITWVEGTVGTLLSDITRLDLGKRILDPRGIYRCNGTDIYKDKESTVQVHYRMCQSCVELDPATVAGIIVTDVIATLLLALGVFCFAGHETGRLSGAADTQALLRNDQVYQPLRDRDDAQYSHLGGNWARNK
Sequence of CD3 on Jurkat cells (Homo sapiens (Human)) (gamma, as listed by the source limits assumed, form in doubt, chain 3 of 3): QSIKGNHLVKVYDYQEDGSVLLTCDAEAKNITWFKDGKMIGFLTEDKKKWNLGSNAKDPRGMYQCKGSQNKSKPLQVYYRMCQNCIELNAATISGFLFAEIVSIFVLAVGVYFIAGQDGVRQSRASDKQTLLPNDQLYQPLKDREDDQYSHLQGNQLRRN
Sequence of CD20 on Raji cells (P11836 whole entry): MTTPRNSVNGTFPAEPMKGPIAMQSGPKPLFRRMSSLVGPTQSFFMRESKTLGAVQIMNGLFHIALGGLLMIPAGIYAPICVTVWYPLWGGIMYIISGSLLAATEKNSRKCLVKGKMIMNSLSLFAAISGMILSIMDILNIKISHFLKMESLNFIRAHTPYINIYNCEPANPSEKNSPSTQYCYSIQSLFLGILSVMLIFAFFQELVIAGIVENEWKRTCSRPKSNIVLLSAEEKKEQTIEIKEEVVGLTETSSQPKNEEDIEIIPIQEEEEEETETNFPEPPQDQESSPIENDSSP

Take “isotype control (human immunoglobulin, Jiangxi Boya Bio-pharmaceutical, Approval No.S19993012) (antibody)”: the MFI in experiment [1] came to 3.16; in the experiment with CD20 on Raji cells, 2.77; in experiment [2], 2.75; in experiment [3], 2.7; in experiment [4], 3.34. The substance further returned a Mean Fluorescence Intensity (MFI) with HER2 on SK-BR-3 cells of 2.88.
